Experimental data from PMC9455977, “Deciphering the Regulatory Circuits of RA3 Replication Module - Mechanisms of the Copy Number Control”.

Tested on: RepA D76V (plasmid RA3 (IncU, isolated from Aeromonas hydrophila))
Assay: EMSA
Conditions: 25 mM Tris-HCl pH 8.0, 5 mM MgCl2, 40 mM NaCl, 0.5 mg/mL BSA, 30 min at 37 C, 20 uL; 30 ng PCR fragment (0.8% agarose) or 150 ng ds oligo (10% native PAGE) …

repAp 256 bp PCR fragment
binding signal (fold lower affinity than WT RepA): 5
